Test results: patent publication US20070167369A1 (KYUNGPOOK NATIONAL UNIVERSITY INDUSTRY ACADEMIC COOPERATION …, published 2007)

What was measured:
αvβ3 integrin [1] = target: T1, αvβ3 integrin (human, UniProt P06756 31-1048; P05106 27-788); assay: binding to HUVECs, Scatchard analysis (Example 16); reference: fas-1 domain (βig-h3 D-IV)
T1 construct: whole, on cells; On human umbilical vein endothelial cells (HUVECs); also called αvβ3 integrin of endothelial cells
Protocol: (§1) HUVECs (3×10⁴ cells/100 μl) were seeded in the 96-well plates and then incubated with increasing concentrations of each protein for 1 hour at room temperature. Cell binding of each protein was detected by His-probe-HRP antibody and quantified by measuring hexosaminidase.

αvβ3 integrin [2] = target: T1, αvβ3 integrin; assay: binding of His-tagged protein to HUVECs in 96-well plates, His-probe-HRP detection, Scatchard analysis
Protocol: as §1

T1 sequence (P06756 31-1048, chain 1 of 2): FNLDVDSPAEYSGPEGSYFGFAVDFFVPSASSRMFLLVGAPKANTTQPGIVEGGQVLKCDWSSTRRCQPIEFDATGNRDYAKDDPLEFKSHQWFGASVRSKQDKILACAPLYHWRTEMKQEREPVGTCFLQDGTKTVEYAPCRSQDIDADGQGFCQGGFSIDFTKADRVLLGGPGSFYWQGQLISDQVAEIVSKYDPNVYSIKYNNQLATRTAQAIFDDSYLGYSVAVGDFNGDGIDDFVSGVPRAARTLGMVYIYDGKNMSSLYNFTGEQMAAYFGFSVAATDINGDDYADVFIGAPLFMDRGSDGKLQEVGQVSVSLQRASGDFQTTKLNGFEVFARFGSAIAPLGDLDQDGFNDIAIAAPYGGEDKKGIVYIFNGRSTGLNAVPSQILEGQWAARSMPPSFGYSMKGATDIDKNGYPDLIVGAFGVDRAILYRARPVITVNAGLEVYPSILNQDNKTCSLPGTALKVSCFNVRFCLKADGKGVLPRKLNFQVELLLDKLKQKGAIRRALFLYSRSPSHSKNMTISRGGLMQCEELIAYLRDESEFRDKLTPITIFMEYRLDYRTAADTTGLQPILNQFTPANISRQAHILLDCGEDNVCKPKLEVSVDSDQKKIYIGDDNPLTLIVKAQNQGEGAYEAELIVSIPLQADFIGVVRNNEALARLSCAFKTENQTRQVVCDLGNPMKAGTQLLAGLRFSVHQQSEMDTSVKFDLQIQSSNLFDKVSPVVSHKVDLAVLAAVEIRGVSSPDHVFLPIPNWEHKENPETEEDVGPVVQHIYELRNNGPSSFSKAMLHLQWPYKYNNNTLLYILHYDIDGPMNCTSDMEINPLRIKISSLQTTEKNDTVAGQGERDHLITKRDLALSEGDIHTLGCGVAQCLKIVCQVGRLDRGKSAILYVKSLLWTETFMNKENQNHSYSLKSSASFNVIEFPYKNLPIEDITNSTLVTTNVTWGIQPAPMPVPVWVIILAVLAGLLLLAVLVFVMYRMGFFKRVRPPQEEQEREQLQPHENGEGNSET
T1 sequence (P05106 27-788, chain 2 of 2): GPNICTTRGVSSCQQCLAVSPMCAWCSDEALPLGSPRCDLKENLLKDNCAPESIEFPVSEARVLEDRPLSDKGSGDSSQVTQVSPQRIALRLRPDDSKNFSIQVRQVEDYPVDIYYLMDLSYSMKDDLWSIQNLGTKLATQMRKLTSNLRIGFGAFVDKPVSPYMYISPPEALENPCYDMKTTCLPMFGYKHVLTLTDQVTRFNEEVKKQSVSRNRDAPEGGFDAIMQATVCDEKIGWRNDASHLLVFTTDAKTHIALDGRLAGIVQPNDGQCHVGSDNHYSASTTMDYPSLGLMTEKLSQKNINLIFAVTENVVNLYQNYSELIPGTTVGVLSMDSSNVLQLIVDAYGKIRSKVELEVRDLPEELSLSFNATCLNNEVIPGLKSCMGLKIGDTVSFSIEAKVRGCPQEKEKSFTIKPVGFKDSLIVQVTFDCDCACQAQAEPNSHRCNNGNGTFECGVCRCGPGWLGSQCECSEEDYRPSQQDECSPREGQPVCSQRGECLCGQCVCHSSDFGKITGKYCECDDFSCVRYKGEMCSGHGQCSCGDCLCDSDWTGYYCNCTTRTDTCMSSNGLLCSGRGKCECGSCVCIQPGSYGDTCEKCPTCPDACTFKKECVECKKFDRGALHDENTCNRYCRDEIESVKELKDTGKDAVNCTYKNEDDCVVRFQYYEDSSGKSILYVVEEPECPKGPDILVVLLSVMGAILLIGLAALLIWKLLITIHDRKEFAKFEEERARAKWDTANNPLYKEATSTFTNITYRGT

Kd relative to that of the fas-1 domain of βig-h3 (αvβ3 integrin [1]) [fold less] | Kd (αvβ3 integrin [2]) [µM] | Binder
100 | ~0.303 | recombinant human βig-h3 protein βig-h3 His-β-b (truncated βig-h3) (ligand, also called βig-h3 His-1-b; Wild-type; not shown: vector-derived residues / His tag from the pET-29 vector (Ni-NTA purified, detected with His-probe-HRP)) WYQRKICGKSTVISYECCPGYEKVPGEKGCPAALPLSNLYETLGVVGSTTTQLYTDRTEKLRPEMEGPGSFTIFAPSNEAWASLPAEVLDSLVSNVNIELLNALRYHMVGRRVLTDELKHGMTLTSMYQNSNIQIHHYPNGIVTVNCARLLKADHHATNGVVHLIDKVISTITNNIQQIIEIEDTFETLRAAVAASGLNTMLEGNGQYTLLAPTNEAFEKIPSETLNRILGDPEALRDLLNNHILKSAMCAEAIVAGLSVETLEGTTLEVGCSGDMLTINGKAIISNKDILATNGVIHYIDELLIPDSAKTLFELAAESDVSTAIDLFRQAGLGNHLSGSERLTLLAPLNSVFKDGTPPIDAHTRNLLRNHIIKDQLASKYLYHGQTLETLGGKKLRVFVYRNSLCIENSCIAAHDKRGRYGTLFTMDRVLTPPMGTVMDVLKGDNRFSMLVAAIQSAGLTETLNREGVYTVFAPTNEAFRALPPRERSRLLGDAKELANILKYHIGDEILVSGGIGALVRLKSLQGDKLEVSLKNNVVSVNKEPVAEPDIMATNGVVHVITNVLQPPANRPQERGDELADSALEI
– | ~30 | βig-h3 D-IV (recombinant protein containing the fourth fas-1 domain of human βig-h3) (ligand, Cloned in pET-29b(+), Ni-NTA purified; also called fas-1 protein) MGTVMDVLKGDNRFSMLVAAIQSAGLTETLNREGVYTVFAPTNEAFRALPPRERSRLLGDAKELANILKYHIGDEILVSGGIGALVRLKSLQGDKLEVSLKNNVVSVNKEPVAEPDIMATNGVVHVITNVL
